Measurements published in the RNAGym collection of RNA variant scans (doi:10.1073/pnas.2313332121).
Variants at the floor of the assay were thinned out.

B1: TPR 5TU (parent)
chain: GGAUCUUCUCGAUCUAACAAAAAAGACAAAUCUGCCACAAAGCUUGAGAGCAUCUUCGGAUGCAGAGGCGGCAGCCUUCGGUGGCGCGAUAGCGCCAACGUUCUCAACUAUGACACGCAAAACGCGUGCUCCGUUGAAUGGAGUUUAUCAUG

Variants of: B1
Test: polymerase ribozyme fitness, log enrichment relative to wild type (log ratio); higher = more active; in vitro selection for triplet polymerase activity
Summary of the method: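 After PCR construction and transcription, each subunit's mutant library from a heterodimeric triplet polymerase ribozyme was annealed with a biotinylated primer, the partner subunit and triplets. Incubation was frozen, at −7 °C, and extended constructs were gel-excised, bound to streptavidin beads and amplified by RT-PCR, in one selection round done in triplicate. Fitness is the logarithm of a genotype's enrichment divided by that of the wild type, from inverse-variance-weighted replicate averages of Illumina-sequenced inputs and outputs. The base of the logarithm is 2, and genotypes needed ≥10 input reads and ≥1 read per output.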

First: A28U C85A
Second: A29U U31A U56G A66G C96U C105A A138U
The “polymerase ribozyme fitness (log ratio)” value of the first is higher: -4.11 for the first, at most -4.2 for the second.

A29G G50A G67U C75G C85A C123G C125G C132U A142C and A29C A39C U53A A122G C123A U135G U146A cannot be ordered by “polymerase ribozyme fitness (log ratio)” value: at most -4.2 for the first, at most -4.2 for the second.

C27G C85A U90G and A29C C32A cannot be ordered by “polymerase ribozyme fitness (log ratio)” value: at most -4.2 for the first, at most -4.2 for the second.

A28U A29G C32U C57G and A29U C35G G71C cannot be ordered by “polymerase ribozyme fitness (log ratio)” value: at most -4.2 for the first, at most -4.2 for the second.

A28U C87U A106U C108U A119C U148C and C27G C85G G88A G100C U148G cannot be ordered by “polymerase ribozyme fitness (log ratio)” value: at most -4.2 for the first, at most -4.2 for the second.

A29U C103U and C27G C35G A64U A73G C79A C85G A91U cannot be ordered by “polymerase ribozyme fitness (log ratio)” value: at most -4.2 for the first, at most -4.2 for the second.

A29U C36A A47C C118U U146C and A30C A91C A98U A119U cannot be ordered by “polymerase ribozyme fitness (log ratio)” value: at most -4.2 for the first, at most -4.2 for the second.

C27G A30G A39U C87A and C27G G59U A60C A91U C105U U145C cannot be ordered by “polymerase ribozyme fitness (log ratio)” value: at most -4.2 for the first, at most -4.2 for the second.

A28U A47C C63G G86C C129A and A28C A40U U53A G84U A115U cannot be ordered by “polymerase ribozyme fitness (log ratio)” value: at most -4.2 for the first, at most -4.2 for the second.

A28C U144G and A28U C87G U127A G133C U139A are within 0.2 log units of each other in “polymerase ribozyme fitness (log ratio)” value: -4.03 for the first, -4.15 for the second.

First: A28U C54A G92U C118U G124U C131A A137U
Second: C27G A37U A64C G88C A91C A120G A122U U148G
The “polymerase ribozyme fitness (log ratio)” value of the first is lower: at most -4.2 for the first, -4.09 for the second.

C27U A40U G59U A107G C116A and A29C A37C G74A A97G U130A cannot be ordered by “polymerase ribozyme fitness (log ratio)” value: at most -4.2 for the first, at most -4.2 for the second.

A26U U31G G42C C93G A137G and A28G U53A G84U G140A cannot be ordered by “polymerase ribozyme fitness (log ratio)” value: at most -4.2 for the first, at most -4.2 for the second.

C27G U56G and A28C C57U U82C C85G U111G A137U cannot be ordered by “polymerase ribozyme fitness (log ratio)” value: at most -4.2 for the first, at most -4.2 for the second.

Going from C27U A60U to A30C G92A U104A A106C C108A, the “polymerase ribozyme fitness (log ratio)” value falls from -1.43 to at most -4.2.

A29U U55A G62C C116G and C27A A40G U55A G83C cannot be ordered by “polymerase ribozyme fitness (log ratio)” value: at most -4.2 for the first, at most -4.2 for the second.

A29C A37G G65C C75G U77A A97G C118U C123U and C27U G34U C93U G112C U148G cannot be ordered by “polymerase ribozyme fitness (log ratio)” value: at most -4.2 for the first, at most -4.2 for the second.

A29U A52C G68C C96U C99G A121U G126A A150U and A28U G50C C54U C95A A107U G143U cannot be ordered by “polymerase ribozyme fitness (log ratio)” value: at most -4.2 for the first, at most -4.2 for the second.

A29G C103G U104G and C27U U55A G68U C85G cannot be ordered by “polymerase ribozyme fitness (log ratio)” value: at most -4.2 for the first, at most -4.2 for the second.

Compared with C27U A37U C125U, A29U U53C is lower in “polymerase ribozyme fitness (log ratio)” value: -3.74 for the first, at most -4.2 for the second.

First: A29U U53A
Second: A30C C57U G81C C87G A97U U109G G141A
The “polymerase ribozyme fitness (log ratio)” value of the first is higher: -4.15 for the first, at most -4.2 for the second.

First: A28U A29G A40G C85G U90G U134G
Second: C27G G141U
The “polymerase ribozyme fitness (log ratio)” value of the first is lower: at most -4.2 for the first, -4.04 for the second.

Going from A28U C35U A91U C132U to C27A C38U G81A G86U A110U, the “polymerase ribozyme fitness (log ratio)” value falls from -3.89 to at most -4.2.

C27U G68U G74U U77C G80C U104C C116G and C27G G67C C85A cannot be ordered by “polymerase ribozyme fitness (log ratio)” value: at most -4.2 for the first, at most -4.2 for the second.

A26U U31C A39U U90C and A28C A49U U56A G65A G70C A91U G94C G117C U151A cannot be ordered by “polymerase ribozyme fitness (log ratio)” value: at most -4.2 for the first, at most -4.2 for the second.

Going from A26U U56A U101G A115G to A26U U55G G86C C96U A97C C99A U102G, the “polymerase ribozyme fitness (log ratio)” value falls from -3.42 to at most -4.2.

C27U A49C G88A U111G and A28C G58C cannot be ordered by “polymerase ribozyme fitness (log ratio)” value: at most -4.2 for the first, at most -4.2 for the second.

A28U G67A G74A G86C C108A C132A and A29C C32U C35G A66U C87A G94C A107U C125U cannot be ordered by “polymerase ribozyme fitness (log ratio)” value: at most -4.2 for the first, at most -4.2 for the second.

A28C A41U C43U G46C C85A U130G U135C and A29U G48A U61G G84U C85A C105U G126U cannot be ordered by “polymerase ribozyme fitness (log ratio)” value: at most -4.2 for the first, at most -4.2 for the second.

First: A30C A41C C43U U53A C93U C125U A137G
Second: A29G G46C A47C C132U U146A
The “polymerase ribozyme fitness (log ratio)” value of the first is lower: at most -4.2 for the first, -4.16 for the second.

A26U G84C U145G and A29C U45A C95G cannot be ordered by “polymerase ribozyme fitness (log ratio)” value: at most -4.2 for the first, at most -4.2 for the second.

C27G C36G C85U and C27G A29C C87G A121U cannot be ordered by “polymerase ribozyme fitness (log ratio)” value: at most -4.2 for the first, at most -4.2 for the second.

Going from A28U G88A G94A C99G C103G U104A A107G to C27U A97U C116U A120C, the “polymerase ribozyme fitness (log ratio)” value rises from at most -4.2 to -3.06.

Going from C27U U44G U56A G58C U61A G86U U135C to C27G C54A, the “polymerase ribozyme fitness (log ratio)” value rises from at most -4.2 to -3.98.

First: C27G U45G
Second: C27G G62A A64G A73C G88U C99U A107U G124A U130C U148A
The “polymerase ribozyme fitness (log ratio)” value of the first is higher: -3.87 for the first, at most -4.2 for the second.

Compared with A29G A73U A91G C99U A115U A137U, C27U C87U A142U is higher in “polymerase ribozyme fitness (log ratio)” value: at most -4.2 for the first, -3.03 for the second.

First: A30C G46U C95G U102G
Second: A30C U55G C95A U135G U148A
The “polymerase ribozyme fitness (log ratio)” value of the first is lower: at most -4.2 for the first, -3.85 for the second.

A29U G42U G84U C114A and C27A C93U C116U G126A A147G cannot be ordered by “polymerase ribozyme fitness (log ratio)” value: at most -4.2 for the first, at most -4.2 for the second.

A29C A52C C54U U82C U90A G136A and A29C C51U G83C C95U A137G G143C cannot be ordered by “polymerase ribozyme fitness (log ratio)” value: at most -4.2 for the first, at most -4.2 for the second.

A29C C36G U78C C93G A97G and A28U C87A C131G cannot be ordered by “polymerase ribozyme fitness (log ratio)” value: at most -4.2 for the first, at most -4.2 for the second.

Going from A28U G58C C96A A97G U144A U145G to C27A U101G, the “polymerase ribozyme fitness (log ratio)” value rises from at most -4.2 to -3.63.

In the case of A26U U33G G92A C95U U134G, the “polymerase ribozyme fitness (log ratio)” value is reported as at most -4.2.
